This passage reports yields of cysteine and Cysteine yield results from patent US6218168A, “Process for preparing O-acetylserine, L-cysteine and L-cysteine-related products” (Consortium fur elektrochemische Inudstrie GmbH, priority 1995, dated 2001).

Assay [1] relates to JM15attλ::cysE strains. In words: Cysteine production in 1 L fermenter, chromosomally encoded cysE alleles. The class given is cell-based, E. coli. To be noted: single chromosomal copy. As to the method:
For the purpose of being integrated into the chromosomal attachment site (attλ), the cysE alleles cysEIV, cysEX and cysEXI were cloned into the plasmid pRS551 (Simons et al., 1987, Gene 53: 85-96). For this, each cysE allele was amplified by PCR from the corresponding cysE plasmid. The oligonucleotides which were used, i.e. cysE-fwl and cysE-revl, are described in Example 1. The amplification was carried out as described in Example 3. The resulting fragments were cleaved with EcoRI/BamHI, purified through an agarose gel and ligated into vector pRS551 which had been cleaved with EcoRI and BamHI. This afforded the vector pRS551-based recombinant plasmids pRScysEIV, X and XI.
A heterogeneous lambda lysate, which contained recombinant cysE allele-carrying λRS45 derivatives in addition to λRS45 phages, was produced in vivo by homologous recombination by means of preparing a plate lysate on a pRScysE-carrying recA^+ strain (e.g. YMC9, ATCC 3397) using the λRS45 phage (Simons et al., 1987, Gene 53: 85-96).
The cysE strain JM15, which was infected with the heterogeneous lambda lysate and subsequently plated on kanamycin-containing (25 mg/L) LB plates, was used for selecting for the recombinant RS45 derivatives. The lysogenic, kanamycin-resistant clones which were obtained were then tested for their ability to grow on minimal medium plates without cysteine. A clone which was in each case cysteine-prototrophic was selected and used for preparing a homogeneous cysE λ lysate (by means of UV induction, Simons et al., 1987, Gene 53: 85-96).
The JM15 stain was infected with these homogeneous cysE λ lysates which were obtained in each case. The resulting JM15attλ::cysE strains were cultured as described in Example 6. Instead of tetracycline, the respective media in each case contained 25 mg of kanamycin per L as the selection agent.

Assay [2] has as its system production strain JM15. In words: Cysteine production in 1 L fermenter, JM15 with plasmid-encoded cysE alleles. The class given is cell-based, E. coli. The settings on record: 48 h, JM15 transformed with plasmid. As to the method:
Influence of different, plasmid-encoded cysE alleles on the production of L-cysteine or products derived from L-cysteine in a 1 L fermenter using the host strain JM15 20 mL of LB medium (1% tryptone, 0.5% yeast extract, 0.5% NaCl) contained in a 100 mL Erlenmeyer flask were inoculated with a single colony of the production strain JM15 (CGSC#5042) which had been transformed with the respective cysE plasmid.
After having been incubated for 7 hours in a bacterial shaker (30° C., 150 rpm), the respective preliminary cultures were transferred to 100 mL of SM1 medium. The SM1 medium contained 5 g/L glucose, 5 mg/L vitamin B1, 3 g/l KH2 PO4, 12 g/L K2 HPO4, 0.3 g/L MgSO4×7 H2 O, 0.1 g/L NaCl, 5 g/L (NH4)2 SO4, 14.7 mg/L CaCl2×2 H2 O, 2 mg/L FeSO4×2 H2 O, 1 g/L Na3 citrate×2 H2 O, 1 ml/L trace element solution and 25 mg/L tetracycline. The trace element solution was composed of 0.15 g/L Na2 MoO4×2 H2 O, 2.5 g/L H3 BO3, 0.7 g/L CoCl2×6 H2 O, 0.25 g/L CuSO4×5 H2 O, 1.6 g/L MnCl2×4 H2 O and 0.3 g/L ZnSO4×7 H2 O. The cultures were shaken in 1 L Erlenmeyer flasks at 30° C. and at 150 rpm for 17 h. After this incubation, the OD600 was between 4 and 5. The subsequent fermentation was carried out in Braun-Melsungen BIOSTAT M research fermenters. A culturing vessel having a total volume of 2 L was used.
The fermentation medium contained 15 g/L glucose, 5 g/L NaCl, 0.3 g/L MgSO4×7 H2 O, 15 mg/L CaCl2×2 H2 O, 75 mg/L FeSO4×7 H2 O, 1 g/L Na3 citrate×2 H2 O, 1.5 g/L KH2 PO4, 1 mL of trace element solution (see above), 5 mg/L vitamin B1, 2.5 g/L yeast extract (Difco), 2.5 g/L tryptone (Difco) and 25 mg/L tetracycline.
The glucose concentration in the fermenter was initially adjusted to a value of 15 g/L by pumping in a 700 g/L (w/v) (sterilized) glucose solution, and the pH was adjusted to 7.0 by pumping in a 25% NH4 OH solution. After an OD600 of 10 had been reached, 300 mg per hour were supplied from a sterile 100 g/L (w/v) stock solution of thiosulfate. 100 mL of preliminary culture were pumped into the fermenter vessel for the inoculation. The starting volume was approximately 1 L. The cultures were initially stirred at 400 rpm and aerated with 1.5 vvm of compressed air which had been sterilized by passing through a sterile filter. The fermentation was carried out at a temperature of 30° C.
The pH was maintained at a value of 7.0 by means of automatic correction with 25% NH4 OH. The oxygen saturation in the fermentation broth had at no time during the fermentation to fall below 20%; the stirring speed was used to ensure this. The glucose content of the nutrient solution, the optical density and the cysteine content were determined at two- to three-hourly intervals. The glucose content was determined enzymically using a glucose analyzer from YSI. The concentration of the glucose was adjusted to between 10 and 20 g/L by means of continuously feeding in this compound.
The content of cysteine in the medium was determined […] from the cell-free super-natant of the sample using the method of Gaitonde, M. K. (1967), Biochem. J. 104, 627-633.
The fermentation was terminated after 44-50 h.

B1: cysEXI: double mutant Thr167->Ala167, Gly245->Ser245 (protein, UniProt P0A9D4 1-273, looked up, variant T167A G245S)
Serine acetyltransferase: MSCEELEIVWNNIKAEARTLADCEPMLASFYHATLLKHENLGSALSYMLANKLSSPIMPAIAIREVVEEAYAADPEMIASAACDIQAVRTRDPAVDKYSTPLLYLKGFHALQAYRIGHWLWNQGRRALAIFLQNQVSVTFQVDIHPAAKIGRGIMLDHATGIVVGEAAVIENDVSILQSVTLGGTGKSGGDRHPKIREGVMIGAGAKILGNIEVGRGAKIGAGSVVLQPVPPHTTAAGVPARIVSKPDSDKPSMDMDQHFNGINHTFEYGDGI
Regarding B1, the yields of cysteine in assay [1] was 2.1 g/L. In addition, in assay [2], the Cysteine yield amounted to 3.4 g/L.
